# B1: Bone morphogenetic protein receptor type-1B (Homo sapiens), O00238 (parent)
# chain: MLLRSAGKLNVGTKKEDGESTAPTPRPKVLRCKCHHHCPEDSVNNICSTDGYCFTMIEEDDSGLPVVTSGCLGLEGSDFQCRDTPIPHQRRSIECCTERNECNKDLHPTLPPLKNRDFVDGPIHHRALLISVTVCSLLLVLIILFCYFRYKRQETRPRYSIGLEQDETYIPPGESLRDLIEQSQSSGSGSGLPLLVQRTIAKQIQMVKQIGKGRYGEVWMGKWRGEKVAVKVFFTTEEASWFRETEIYQTVLMRHENILGFIAADIKGTGSWTQLYLITDYHENGSLYDYLKSTTLDAKSMLKLAYSSVSGLCHLHTEIFSTQGKPAIAHRDLKSKNILVKKNGTCCIADLGLAVKFISDTNEVDIPPNTRVGTKRYMPPEVLDESLNRNHFQSYIMADMYSFGLILWEVARRCVSGGIVEEYQLPYHDLVPSDPSYEDMREIVCIKKLRPSFPNRWSSDECLRQMGKLMTECWAHNPASRLTALRVKKTLAKMSESQDIKL
# partner: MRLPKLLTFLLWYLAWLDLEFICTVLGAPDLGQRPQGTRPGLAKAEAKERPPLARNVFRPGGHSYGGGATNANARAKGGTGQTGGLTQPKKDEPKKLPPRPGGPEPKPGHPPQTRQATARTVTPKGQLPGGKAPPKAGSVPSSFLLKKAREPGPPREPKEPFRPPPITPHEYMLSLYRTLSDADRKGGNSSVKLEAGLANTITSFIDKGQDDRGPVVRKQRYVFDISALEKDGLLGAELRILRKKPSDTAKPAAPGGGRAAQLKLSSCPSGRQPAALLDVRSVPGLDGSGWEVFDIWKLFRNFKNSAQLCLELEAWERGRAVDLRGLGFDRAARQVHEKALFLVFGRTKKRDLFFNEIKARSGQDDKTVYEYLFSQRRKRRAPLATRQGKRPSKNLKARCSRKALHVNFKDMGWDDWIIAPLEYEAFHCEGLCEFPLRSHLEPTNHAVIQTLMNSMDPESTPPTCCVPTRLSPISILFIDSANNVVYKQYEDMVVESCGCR
# B2: Growth/differentiation factor 5 (Homo sapiens), P43026 (parent)
# chain: B1 partner
# B3: Bone morphogenetic protein receptor type-1B (Homo sapiens), O00238 (parent)
# chain: B1 chain
# partner: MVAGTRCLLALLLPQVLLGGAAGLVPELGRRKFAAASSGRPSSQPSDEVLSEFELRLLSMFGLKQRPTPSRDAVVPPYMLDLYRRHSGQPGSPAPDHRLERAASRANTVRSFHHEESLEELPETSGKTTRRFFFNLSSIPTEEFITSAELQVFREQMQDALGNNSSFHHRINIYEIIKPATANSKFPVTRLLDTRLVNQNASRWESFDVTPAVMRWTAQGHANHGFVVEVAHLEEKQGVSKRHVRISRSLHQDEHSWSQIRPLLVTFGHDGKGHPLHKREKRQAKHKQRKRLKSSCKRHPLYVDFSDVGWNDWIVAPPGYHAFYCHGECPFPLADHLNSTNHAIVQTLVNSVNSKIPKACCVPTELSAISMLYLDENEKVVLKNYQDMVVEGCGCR
# Variants of: B1
# Conditions: with gdf5_human GDF5, P43026
row,Variant,effect of a mutation on the interaction
1,F79A,disrupting interaction

# Variants of: B1
# Conditions: with gdf5_human GDF5, P43026
# Remark: another data set of the same source
row,Variant,effect of a mutation on the interaction
1,Q80A,decreasing interaction

# Variants of: B1
# Conditions: with gdf5_human GDF5, P43026
# Remark: another data set of the same source
row,Variant,effect of a mutation on the interaction
1,H35S,decreasing interaction
2,H36G,decreasing interaction

# Variants of: B2
# Conditions: with bmr1b_human BMPR1B
row,Variant,effect of a mutation on the interaction
1,R438L,increasing interaction

# Variants of: B2
# Conditions: with bmpr2_human BMPR2, Q13873
# Sequence of bmpr2_human BMPR2, Q13873 (Q13873 whole entry): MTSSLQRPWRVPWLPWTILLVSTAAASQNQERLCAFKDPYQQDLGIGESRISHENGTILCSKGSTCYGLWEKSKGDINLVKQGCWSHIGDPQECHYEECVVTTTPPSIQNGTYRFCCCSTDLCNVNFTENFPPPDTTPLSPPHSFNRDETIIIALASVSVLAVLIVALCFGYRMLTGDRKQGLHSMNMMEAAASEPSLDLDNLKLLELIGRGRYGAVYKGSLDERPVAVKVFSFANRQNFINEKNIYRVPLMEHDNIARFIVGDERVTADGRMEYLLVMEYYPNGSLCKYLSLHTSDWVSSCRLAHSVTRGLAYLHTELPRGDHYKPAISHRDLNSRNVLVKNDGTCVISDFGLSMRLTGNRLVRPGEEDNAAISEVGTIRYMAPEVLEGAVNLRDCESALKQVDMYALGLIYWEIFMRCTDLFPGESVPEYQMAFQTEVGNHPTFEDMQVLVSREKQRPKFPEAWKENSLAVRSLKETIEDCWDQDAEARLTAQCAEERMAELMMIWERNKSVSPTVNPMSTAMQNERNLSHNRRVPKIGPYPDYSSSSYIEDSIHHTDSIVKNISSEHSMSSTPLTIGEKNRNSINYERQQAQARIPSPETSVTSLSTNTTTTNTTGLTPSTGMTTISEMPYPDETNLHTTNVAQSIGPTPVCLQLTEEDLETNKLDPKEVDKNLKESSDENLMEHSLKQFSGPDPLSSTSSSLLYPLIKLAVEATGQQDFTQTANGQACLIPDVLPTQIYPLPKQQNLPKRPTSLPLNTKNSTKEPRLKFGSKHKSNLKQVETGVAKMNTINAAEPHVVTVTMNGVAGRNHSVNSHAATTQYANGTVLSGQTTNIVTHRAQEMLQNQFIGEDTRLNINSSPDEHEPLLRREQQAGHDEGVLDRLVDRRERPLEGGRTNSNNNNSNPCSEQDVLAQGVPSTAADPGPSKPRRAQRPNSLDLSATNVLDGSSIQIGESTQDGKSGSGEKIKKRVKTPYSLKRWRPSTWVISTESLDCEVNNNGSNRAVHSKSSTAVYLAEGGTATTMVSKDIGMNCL
row,Variant,effect of a mutation on the interaction
1,R438L,increasing interaction

# Variants of: B2
# Conditions: with bmr1a_human BMPR1A
row,Variant,effect of a mutation on the interaction
1,R438L,increasing interaction

# Variants of: B2
# Conditions: with bmr1b_human BMPR1B
# Remark: another data set of the same source
row,Variant,effect of a mutation on the interaction
1,L441P,decreasing interaction

# Variants of: B2
# Conditions: with bmpr2_human BMPR2, Q13873
# Remark: another data set of the same source
row,Variant,effect of a mutation on the interaction
1,L441P,increasing interaction

# Variants of: B2
# Conditions: with bmr1a_human BMPR1A
# Remark: another data set of the same source
row,Variant,effect of a mutation on the interaction
1,L441P,disrupting interaction

# Variants of: B2
# Conditions: with bmpr2_human BMPR2, Q13873
# Remark: another data set of the same source
row,Variant,effect of a mutation on the interaction
1,R438A,decreasing interaction

# Variants of: B3
# Conditions: with bmp2_human BMP2, P12643
row,Variant,effect of a mutation on the interaction
1,F79A,disrupting interaction

# Variants of: B3
# Conditions: with bmp2_human BMP2, P12643
# Remark: another data set of the same source
row,Variant,effect of a mutation on the interaction
1,Q80A,decreasing interaction

# Variants of: B3
# Conditions: with bmp2_human BMP2, P12643
# Remark: another data set of the same source
row,Variant,effect of a mutation on the interaction
1,H35S,decreasing interaction
2,H36G,decreasing interaction

# From IntAct's records for PubMed 19229295
